Experimental data taken from publication PMC6166989 (PLoS Pathogens, 2018).

Target: the molecule itself
Test: SEC

B1: PV-2C-[change] (poliovirus 2C^ATPase residues 116–329) (domain or fragment)
chain: SKHRIEPVCLLVHGSPGTGKSVATNLIARAIAERENTSTYSLPPDPSHFDGYKQQGVVIMDDLNQNPDGADMKLFCQMVSTVEFIPPMASLEEKGILFTSNYVLASTNSSRISPPTVAHSDALARRFAFDMDIQVMNEYSRDGKLNMAMATEMCKNCHQPANFKRCCPLVCGKAIQLMDKSSRVRYSIDQITTMIINERNRRSNIGNCMEALFQ
  stoichiometry N: 4
